Source: publication PMC10925414

Tests used:
[1] = target: γC3 EC1-EC4 wild type (PcdhγC3 EC1-EC4 ectodomain fragment) (mouse); test: AUC; sedimentation equilibrium of single proteins; 1.1, 0.73 and 0.37 mg/mL; 10 mM Tris, 150 mM NaCl, 3 mM CaCl2, pH 8.0, 250 mM imidazole; 25°C; 11000-20000 rpm; interference at 675 nm; global fit in SedPhat; dimer to monomers
[2] = target: γC3 protocadherin EC1-EC4 (Mus musculus); conditions: cited from earlier work

**Q.** Which Kd [1] does the source give for “γC3 EC1-EC4 wild type (PcdhγC3 EC1-EC4 ectodomain fragment) (domain or fragment)” here?
**A.** 115 µM

**Q.** With “γC3 protocadherin EC1-EC4 (from UniProt Q9UN70)” as the substance, how does the Kd [2] read?
**A.** 115 µM
